Experimental data from patent US20250250335A1 (SHENGHE CHINA BIOPHARMACEUTICAL, published 2025).
Residue numbers refer to the chain shown, from its start. Read-outs that look alike come from different tables or passages of the source. Each block holds one binder with its values, some of them ahead of it.

Tests used:
[1] = target: T1, CEACAM5 on the surface of the tumor cells (HPAFII cells) (UniProt P06731 35-685); experiment: flow cytometry on HPAFII cells (Mean-FITC); the cells carry CEACAM5 and CEACAM6, signal not divided between the two
T1 construct: whole, on cells
T1 sequence (looked up): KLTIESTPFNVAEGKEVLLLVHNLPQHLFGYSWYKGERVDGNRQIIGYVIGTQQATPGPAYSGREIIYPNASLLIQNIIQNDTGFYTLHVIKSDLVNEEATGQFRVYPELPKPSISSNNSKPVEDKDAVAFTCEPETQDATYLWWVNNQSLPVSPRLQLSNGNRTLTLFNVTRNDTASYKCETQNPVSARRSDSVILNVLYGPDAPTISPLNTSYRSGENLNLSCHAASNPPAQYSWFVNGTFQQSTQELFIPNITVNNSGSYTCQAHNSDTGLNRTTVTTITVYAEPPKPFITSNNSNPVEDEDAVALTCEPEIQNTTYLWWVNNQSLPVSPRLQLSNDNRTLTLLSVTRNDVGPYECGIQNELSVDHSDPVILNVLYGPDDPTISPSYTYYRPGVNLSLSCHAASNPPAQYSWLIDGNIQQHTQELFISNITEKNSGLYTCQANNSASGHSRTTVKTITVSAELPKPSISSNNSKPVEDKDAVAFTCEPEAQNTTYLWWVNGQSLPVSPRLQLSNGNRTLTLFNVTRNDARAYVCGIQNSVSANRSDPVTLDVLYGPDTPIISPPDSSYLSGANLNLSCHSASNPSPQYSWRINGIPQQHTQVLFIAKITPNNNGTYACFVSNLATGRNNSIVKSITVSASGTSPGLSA
Description: (§1) The antibody to be tested was taken as the initial concentration of 200 nM and diluted 5-fold with 6 gradients. The HPAFII cells (From USTC […] FOR ADVANCED STUDIES) in the incubator were taken out, and the cell suspension was transferred to a 15 mL centrifuge tube, centrifuged, and counted by resuspension in PBS. A blank control group (Blank), a negative control group (NC), an experimental group, a positive control group and the irrelevant antibody group were kept. […] The cell suspension was spread in a 96-well plate according to about 3×10⁵ cells/well. Centrifugation (1000 rpm, 5 min) was performed, followed by washing with PBS, re-centrifugation, and repeated twice to remove media residues. The supernatant was discarded, 100 μL of primary antibody solution and irrelevant antibody solution were added to the experimental group and irrelevant antibody group, respectively, and the cells were resuspended and incubated at room temperature for 1 h. The blank group, and the negative control group were incubated with an equal amount of PBS.
(§2) After 1 h, PBS was added to wash twice. After the supernatant was discarded, 100 μL of fluorescent secondary antibody dilution (Mouse-derived secondary antibody from Abcam ab6785) was added to each sample group, except for the blank group which was added with 100 μL of PBS. After incubation at room temperature and protected from light for 0.5 h, centrifugation was performed and PBS added to wash the samples twice. After the supernatant was discarded, 120 μL of PBS was added to resuspend and sequentially flow cytometry was performed to detect the mean fluorescence intensity. The concentration of the antibody was logarithmically taken as the horizontal coordinate, and the Sigmoidaldose-response (VariableSlope) method (GraphPadPrism Software, GraphPadSoftware, San Diego, California) was chosen to perform a nonlinear regression to obtain the binding activity curves of the antibody on HPAFII cells.

[2] = target: T2, CEACAM6 on the surface of the tumor cells (HPAFII cells) (UniProt P40199 35-320); experiment: as above
T2 construct: whole, on cells
T2 sequence (looked up): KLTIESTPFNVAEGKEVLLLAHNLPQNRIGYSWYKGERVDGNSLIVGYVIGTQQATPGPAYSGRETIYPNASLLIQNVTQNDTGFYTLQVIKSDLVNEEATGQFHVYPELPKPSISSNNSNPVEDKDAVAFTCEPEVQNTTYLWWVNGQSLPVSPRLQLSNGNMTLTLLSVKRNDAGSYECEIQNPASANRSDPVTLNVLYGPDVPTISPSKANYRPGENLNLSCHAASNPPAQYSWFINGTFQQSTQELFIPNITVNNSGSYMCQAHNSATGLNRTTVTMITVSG
Description: as §1, §2

[3] = target: T3, human CEACAM5-his (ACRO CE5-H5226) (human, UniProt P06731 35-685); experiment: ELISA on coated human CEACAM5, OD450
T3 construct: Bought protein; not shown: His tag
T3 sequence (looked up): T1 sequence (looked up)
Description: (§3) The binding activity of the antibodies to human CEACAM5, human CEACAM6, and human CEACAM6 (AB) proteins was detected by ELISA. The plate coated with proteins was incubated at 4° C. overnight, and the 96-well ELISA plate blocked with 2% PBS-BSA was added with the antibody to be detected and incubated at 37° C. for 1 h. After washing 3 times with PBS containing 0.05% Tween, the absorbance value of each well was read at wavelength 450 nm with the gradient-diluted mouse-derived candidate antibody as the primary antibody and anti-mouse-IgG-FC-HRP as the secondary antibody, and the absorbance value of each well was read at wavelength 450 nm after the TMB color development.

[4] = target: T4, mouse CEACAM5 (mouse, UniProt Q3UKK2 35-947, limits assumed); experiment: ELISA on coated protein, OD450
T4 sequence (looked up): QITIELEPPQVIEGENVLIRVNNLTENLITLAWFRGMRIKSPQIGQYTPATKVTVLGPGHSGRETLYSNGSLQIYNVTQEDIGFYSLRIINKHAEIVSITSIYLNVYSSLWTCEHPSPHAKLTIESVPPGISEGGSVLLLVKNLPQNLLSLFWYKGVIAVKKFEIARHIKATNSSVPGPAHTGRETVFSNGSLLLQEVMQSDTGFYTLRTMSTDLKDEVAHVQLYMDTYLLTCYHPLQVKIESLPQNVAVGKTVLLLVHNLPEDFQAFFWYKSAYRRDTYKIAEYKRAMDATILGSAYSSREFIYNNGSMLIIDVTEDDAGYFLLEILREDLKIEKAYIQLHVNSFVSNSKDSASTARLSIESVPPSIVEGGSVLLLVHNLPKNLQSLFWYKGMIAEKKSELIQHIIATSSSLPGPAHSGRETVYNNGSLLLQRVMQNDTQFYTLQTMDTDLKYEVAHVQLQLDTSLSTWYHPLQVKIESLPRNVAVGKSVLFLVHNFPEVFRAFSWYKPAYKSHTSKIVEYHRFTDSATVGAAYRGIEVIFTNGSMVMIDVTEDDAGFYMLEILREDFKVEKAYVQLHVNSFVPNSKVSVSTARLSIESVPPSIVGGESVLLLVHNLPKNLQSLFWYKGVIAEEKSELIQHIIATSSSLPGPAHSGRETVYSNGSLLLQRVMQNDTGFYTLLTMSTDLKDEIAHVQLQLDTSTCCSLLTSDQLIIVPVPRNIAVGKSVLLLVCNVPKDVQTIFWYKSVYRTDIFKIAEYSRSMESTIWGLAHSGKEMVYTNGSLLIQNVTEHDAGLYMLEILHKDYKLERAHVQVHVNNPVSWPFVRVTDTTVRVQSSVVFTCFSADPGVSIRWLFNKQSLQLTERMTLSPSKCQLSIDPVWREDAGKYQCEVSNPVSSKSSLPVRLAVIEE
Description: The affinity of the antibodies to monkey CEACAM5, monkey CEACAM6, and mouse CEACAM5 proteins was determined by ELISA. The plates encapsulated with […] proteins were incubated at 4° C. overnight, and the antibodies to be detected were added to 96-well ELISA plates after being blocked with 2% PBS-BSA and incubated at 37° C. for 1 h. After washing 3 times with PBS containing 0.05% Tween, the absorbance value of each well was read at wavelength 450 nm with the antibody to be detected as the primary antibody and Goat anti-mouse IgG-FC-HRP as the secondary antibody, and the absorbance value of each well was read at wavelength 450 nm after the TMB color development. The specific binding to CEACAM5 and CEACAM6 of mouse and monkey was detected by Elisa method.

[5] = target: T1, CEACAM5 on the surface of the tumor …; experiment: flow cytometry on HPAFII cells (Mean-FITC); the cells carry CEACAM5 and CEACAM6, signal not divided between the two; remark: listed apart in the source
Description: as §1, §2

[6] = target: T2, CEACAM6 on the surface of the tumor …; experiment: as above; remark: listed apart in the source
Description: as §1, §2

[7] = target: T3, human CEACAM5-his (ACRO CE5-H5226); experiment: ELISA on coated human CEACAM5, OD450; remark: listed apart in the source
Description: as §3

[8] = target: T2, CEACAM6 on the surface of the tumor …; experiment: flow cytometry on HPAFII cells (Mean PE); the cells carry CEACAM5 and CEACAM6, signal not divided between the two
Description: Centrifugation (1000 rpm, 5 min) was performed, followed by washing with PBS, re-centrifugation, and repeated twice to remove media residues. The supernatant was discarded, 100 μL of primary antibody solution and irrelevant antibody solution were added to the experimental group and irrelevant antibody group, respectively, and the cells were resuspended and incubated at room temperature for 1 h. The blank group, and the negative control group were incubated with an equal amount of PBS.
as §2, with “(Secondary” for “(Mouse-derived secondary”, “ab98596)” for “ab6785)”

[9] = target: T5, Human-CEACAM6 (AB)-His (human, UniProt P40199 145-314); experiment: ELISA on coated human CEACAM6 (AB), OD450
T5 construct: Made in house, purified on a nickel column
Description: as §3

T5 sequence (P40199 other isoform, or with tags, fused parts or gaps limits assumed): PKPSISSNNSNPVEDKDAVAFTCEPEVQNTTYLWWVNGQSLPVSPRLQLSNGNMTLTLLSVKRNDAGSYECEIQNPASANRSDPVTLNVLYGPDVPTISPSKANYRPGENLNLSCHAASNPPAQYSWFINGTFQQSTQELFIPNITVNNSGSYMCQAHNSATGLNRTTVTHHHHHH

B3: Antibody E (antibody, human IgG1, kappa, V domains shown)
VH: EVQLVESGGGLVQPGGSLRLSCATSEFTLIDYYMSWVRQAPGKALEWVGYIRNKVNGHTTDYIASVKGRFTISRDDSKNSLYLQMNSLKTEDTAVYYCVRDPGINWYFDVWGQGTLVTVSS
VL: EIVLTQSPATLSLSPGERATLSCRASSRVTYMHWYQQKPGQSPRPLISATSNLASGIPARFSGSGSGTDYTLTISSLEPEDFAVYYCQQWSYNPPTFGGGTKLELKR
notes: humanized from mouse-derived antibody 2; also called humanized antibody E
binding result [8]: binds

B4: Antibody F (antibody, human IgG1, kappa, V domains shown)
VH: B3 VH
VL: B3 VL with E1Q, Q41S, R44K, V84T
notes: humanized from mouse-derived antibody 2; also called humanized antibody F
binding result [8]: binds

B5: Antibody I (antibody, human IgG1, kappa, V domains shown)
VH: B3 VH with Q3K, A40S, V48L, V95T
VL: B3 VL with E1Q, Q41S, R44K, V84T
notes: humanized from mouse-derived antibody 2; also called humanized antibody I
binding result [8]: binds

Other lines, results leading:

EC50 (read off the curve) [1]: ~4 nM
EC50 (read off the curve) [2]: ~4 nM
EC50 (read off the curve) [3]: ~0.01 µg/mL
B1: Antibody 11 (antibody, V domains shown)
VH: QVQLQQSGPELVRPGVSVKISCKGSGYTFTDFAIHWVRQSHSRSLEWVGIITTYGGDTNYNQKFRGKATMTVDKSSSTVFLELARLTSEDSAIYYCARNRAYRFFYAMDYWGQGTSVTVSS
VL: DIQMTQSPASLSASVGETVTITCGASENIYGALNWYQRKQGKSPQLLIYGATNLADGMSSRFSGSGSAGQYSLNISSLHPDDVATYYCQSVLFAPYTFGGGTRLEIK
notes: Mouse-derived hybridoma antibody; also called mouse-derived antibody 11

OD [4]: 0.15 OD
EC50 (read off the curve) [5]: ~3 nM
EC50 (read off the curve) [6]: ~3 nM
EC50 (read off the curve) [7]: ~0.02 µg/mL
B2: Antibody 2 (antibody, V domains shown)
VH: EVKLVESGGGLVQPGGSLRLSCATSEFTLIDYYMSWVRQSPGKALEWLGYIRNKVNGHTTDYIASVKGRFAISRDNSQSILYLQMNTLRVEDSATYYCVRDPGINWYFDVWGAGTTVTVSS
VL: QIVLSQSPAILSASPGEKVTMTCRASSRVTYMHWYQQKPGSSPKPWISATSNLASGVPARFSGSGSGTSYSLTISRVEAEDAATYYCQQWSYNPPTFGAGTKLELN
notes: Mouse-derived hybridoma antibody; also called mouse-derived antibody 2

EC50 (read off the curve) [1]: ~6 nM
EC50 (read off the curve) [2]: ~6 nM
EC50 (read off the curve) [9]: ~0.01 µg/mL
EC50 (read off the curve) [3]: ~0.02 µg/mL
B6: Antibody 9 (antibody, V domains shown)
VH: EVKLVESGGGLVQPGGSLRLSCATSEITFIDYYMSWVRQPPGKALEWLGLIRNKANGYTTEYSESVKGRFTISRDKSQSILYLQMNTLRVEDSATYYCARDPGINWYFDVWGAGTTVTVSS
VL: QNILSQSPTILSASPGEKVTMTCRASSSVSYMHWYQQKPGSSPKPWIYATSNLASGVPARFSGSGSGTSYSLTISRVEAEDVAIYFCQRWGYNPPTFGAGTKLELK
notes: Mouse-derived hybridoma antibody; also called mouse-derived antibody 9
